Assay results: patent US20190201542A1 (AbbVie / Abbott, published 2019)
Positions count from the first letter of the chain named.

T1: human DLL3 (human, UniProt Q9NYJ7 27-492, limits assumed)
T1 construct: also called hDLL3; DLL3 protein
T1 sequence: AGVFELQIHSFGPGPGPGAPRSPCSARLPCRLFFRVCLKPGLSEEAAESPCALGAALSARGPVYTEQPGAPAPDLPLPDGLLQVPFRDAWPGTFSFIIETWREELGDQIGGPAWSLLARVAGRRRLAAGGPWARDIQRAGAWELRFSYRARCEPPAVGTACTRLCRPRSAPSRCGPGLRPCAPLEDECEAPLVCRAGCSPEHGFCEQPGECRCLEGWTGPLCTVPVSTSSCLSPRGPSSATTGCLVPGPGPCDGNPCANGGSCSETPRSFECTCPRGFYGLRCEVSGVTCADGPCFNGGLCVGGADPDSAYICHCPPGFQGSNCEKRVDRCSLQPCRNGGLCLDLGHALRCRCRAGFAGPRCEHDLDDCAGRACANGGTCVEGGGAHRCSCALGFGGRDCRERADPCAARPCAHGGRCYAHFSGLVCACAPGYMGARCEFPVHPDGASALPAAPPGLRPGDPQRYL

B1: hSC16.34 (antibody, human IgG1, kappa, V domains shown)
VH: QVQLVQSGAEVKKPGASVKVSCKASGYTFTNYGMNWVRQAPGQRLEWMGWINTYTGDPTYADDFKGRVTITRDTSASTAYMELSSLRSEDTAVYYCARIGGNSPSDYWGQGTTVTVSS
VL: DIQMTQSPSSLSASVGDRVTITCKASQSVSNDVAWYQQKPGKVPKLLIYYASNRYSGVPSRFSGSGSGTDFTLTISSLQPEDVATYFCQQDYSSPWTFGGGTKVEIKR
notes: humanized IgG1/kappa; also called humanized SC16.34
B2: hSC16.56 (antibody, human IgG1, kappa, V domains shown)
VH: B1 VH with R44G, D57E, I70M, R72T, A76T, S84R, E89D, G101D, N102S, T113L
VL: EIVMTQSPATLSVSPGERATLSCKASQSVSNDVVWYQQKPGQAPRLLIYYASNRYTGIPARFSGSGSGTEFTLTISSLQSEDFAVYYCQQDYTSPWTFGQGTKLEIKR
notes: humanized IgG1/kappa; also called humanized SC16.56
B3: chimeric SC16.15 (antibody, human IgG1, kappa, V domains shown)
VH: QVQLQQSGAELAKPGASVKMSCKASGYTFTRYWIHWIKQRPGQGLEWIGYINPTTVYTEFNQNFKDKATLTADKSSTTASMQLSSLTSEDSAVYYCARGGSNFFDYWGQGTTLTVSS
VL: DIQMTQSPASLAASVGETVAITCRASENIYYNLAWYQQKQGKSPQLLIYTANSLEDGVPSRFSGSGSGTQYSLKINSMQPEDSATYFCKQAYDVPPTFGGGTKLEIKR
notes: murine V regions on human IgG1/kappa; also called chimeric parent antibody of hSC16.15
B4: hSC16.25 (antibody, human IgG1, kappa, V domains shown)
VH: QITLKESGPTLVKPTQTLTLTCTFSGFSLSTSGMGVGWIRQPPGKALEWLTDIWWDDNKYYNPSLKSRLTITKDTSKNQVVLTMTNMDPVDTATYYCARRVNYYYDPYYAMDYWGQGTLVTVSS
VL: EIVLTQSPDFQSVTPKEKVTITCSASSSVSYMHWYQQKPDQSPKLLIKDSSKLASGVPSRFSGSGSGTDFTLTINSLEAEDAATYYCQQWSSNPLTFGQGTKLEIKR
notes: humanized IgG1/kappa; also called humanized SC16.25
B5: hSC16.15 (antibody, human IgG1, kappa, V domains shown)
VH: QVQLVQSGAEVKKPGASVKVSCKASGYTFTRYWIHWIRQAPGQGLEWMGYINPTTVYTEFNQNFKDRVTMTRDTSTSTVYMELSSLRSEDTAVYYCARGGSNFFDYWGQGTTVTVSS
VL: AIQLTQSPSSLSASVGDRVTITCRASENIYYNLAWYQQKPGKAPKLLIYTANSLEDGVPSRFSGSGSGTDFTLTISSLQPEDFATYFCKQAYDVPPTFGGGTKLEIKR
notes: humanized IgG1/kappa; also called humanized SC16.15

target: T1, human DLL3; assay: surface plasmon resonance

Binding result, binds:
B1
B2
B3
B4
B5
